# Target: T1, host PD-1-Fc fusion protein ( ('host'; the dolphin PD-1 of …)
# T1 chain: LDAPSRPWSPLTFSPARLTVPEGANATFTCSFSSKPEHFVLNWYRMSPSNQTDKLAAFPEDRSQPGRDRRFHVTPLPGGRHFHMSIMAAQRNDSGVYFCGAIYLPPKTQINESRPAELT
# Assay: SPR; Biacore T200, 25°C; PD-1-Fc amine-coupled to a CM4 chip (acetate buffer pH 6.5); De2-Fc or PD-L1-Fc as analytes at 0-400 nM in PBS with 0.05% Tween, 30 µL/min; 1:1 Langmuir model
# Details: both partners purified
binder,measurement,value
host PD-L1-Fc fusion protein (Fc fusion) FTITVPKDLYVVEYGSNVTLECRFPVDKQLNLLALVVYWEMEDKKIIQFVNGEEDLNVQHSSYNQRALLLKNQLPLGKAALQITDVKLQDAGIYCCLISYGGADYKRITLKVNASYRKINQTISVDPVTSEHELMCQAEGYPEAEVIWTSSDHRVLSGKTTITSSKREEKLFNVTSTLRINTTANEIFYCIFRRLGHEENSTAELV,Kd,6.2 nM

# From publication PMC9514091, “Discovery of the first PD-1 ligand encoded by a pathogen” (Frontiers in Immunology, 2022)
